Results from publication PMC9198586.

Target: p53 (human, wild type) (human (endogenous in HCT 116, MCF7, U2OS)), P04637
Test: co-IP; HCT 116 colon cancer cells, untreated or treated with RITA; co-immunoprecipitation of p53/MDM2 or p53/MDM4 as described previously (Issaeva et al., 2004)
Conditions: remark: other sources report otherwise

Chain of p53 (human, wild type) (human (endogenous in HCT 116, MCF7, U2OS)), P04637 (P04637 whole entry): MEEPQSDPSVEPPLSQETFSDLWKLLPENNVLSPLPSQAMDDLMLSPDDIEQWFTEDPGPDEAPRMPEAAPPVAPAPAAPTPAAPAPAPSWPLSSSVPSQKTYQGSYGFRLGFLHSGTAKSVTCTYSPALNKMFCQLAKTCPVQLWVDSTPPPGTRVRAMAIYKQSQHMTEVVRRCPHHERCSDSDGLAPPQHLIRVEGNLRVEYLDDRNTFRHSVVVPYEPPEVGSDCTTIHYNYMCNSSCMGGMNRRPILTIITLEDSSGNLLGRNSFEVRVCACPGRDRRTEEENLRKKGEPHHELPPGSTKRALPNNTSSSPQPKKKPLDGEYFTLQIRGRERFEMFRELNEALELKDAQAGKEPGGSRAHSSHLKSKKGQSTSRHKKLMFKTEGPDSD

B1: MDM4 (MDMX), human, O15151 1-490 (natural protein)
chain: MTSFSTSAQCSTSDSACRISPGQINQVRPKLPLLKILHAAGAQGEMFTVKEVMHYLGQYIMVKQLYDQQEQHMVYCGGDLLGELLGRQSFSVKDPSPLYDMLRKNLVTLATATTDAAQTLALAQDHSMDIPSQDQLKQSAEESSTSRKRTTEDDIPTLPTSEHKCIHSREDEDLIENLAQDETSRLDLGFEEWDVAGLPWWFLGNLRSNYTPRSNGSTDLQTNQDVGTAIVSDTTDDLWFLNESVSEQLGVGIKVEAADTEQTSEEVGKVSDKKVIEVGKNDDLEDSKSLSDDTDVEVTSEDEWQCTECKKFNSPSKRYCFRCWALRKDWYSDCSKLTHSLSTSDITAIPEKENEGNDVPDCRRTISAPVVRPKDAYIKKENSKLFDPCNSVEFLDLAHSSESQETISSMGEQLDNLSEQRTDTENMEDCQNLLKPCSLCEKRPRDGNIIHGRTGHLVTCFHCARRLKKAGASCPICKKEIQLVIKVFIA
percent reduction of the amount of MDMX bound to p53 by RITA: 43%
